According to PMC8292550, “Molecular characterization of direct interactions between MPP1 and flotillins” (Scientific Reports, 2021):

B1: recombinant His-tagged flotillin 1 (natural protein, UniProt O75955-1 1-427, looked up)
chain: MFFTCGPNEAMVVSGFCRSPPVMVAGGRVFVLPCIQQIQRISLNTLTLNVKSEKVYTRHGVPISVTGIAQVKIQGQNKEMLAAACQMFLGKTEAEIAHIALETLEGHQRAIMAHMTVEEIYKDRQKFSEQVFKVASSDLVNMGISVVSYTLKDIHDDQDYLHSLGKARTAQVQKDARIGEAEAKRDAGIREAKAKQEKVSAQYLSEIEMAKAQRDYELKKAAYDIEVNTRRAQADLAYQLQVAKTKQQIEEQRVQVQVVERAQQVAVQEQEIARREKELEARVRKPAEAERYKLERLAEAEKSQLIMQAEAEAASVRMRGEAEAFAIGARARAEAEQMAKKAEAFQLYQEAAQLDMLLEKLPQVAEEISGPLTSANKITLVSSGSGTMGAAKVTGEVLDILTRLPESVERLTGVSISQVNHKPLRTA
notes: flotillin 1; the discussion speaks of bacterially expressed proteins; also called FL1
B2: recombinant His-tagged flotillin 2 (natural protein, UniProt Q14254 1-428, looked up)
chain: MGNCHTVGPNEALVVSGGCCGSDYKQYVFGGWAWAWWCISDTQRISLEIMTLQPRCEDVETAEGVALTVTGVAQVKIMTEKELLAVACEQFLGKNVQDIKNVVLQTLEGHLRSILGTLTVEQIYQDRDQFAKLVREVAAPDVGRMGIEILSFTIKDVYDKVDYLSSLGKTQTAVVQRDADIGVAEAERDAGIREAECKKEMLDVKFMADTKIADSKRAFELQKSAFSEEVNIKTAEAQLAYELQGAREQQKIRQEEIEIEVVQRKKQIAVEAQEILRTDKELIATVRRPAEAEAHRIQQIAEGEKVKQVLLAQAEAEKIRKIGEAEAAVIEAMGKAEAERMKLKAEAYQKYGDAAKMALVLEALPQIAAKIAAPLTKVDEIVVLSGDNSKVTSEVNRLLAELPASVHALTGVDLSKIPLIKKATGVQV
notes: flotillin 2; also called FL2

What was measured:
[1] = biological target: flotillins (endogenous, HEL cells)
[2] = biological target: flotillins (endogenous, HEL cells); remark: listed apart in the source
[3] = biological target: T1, full length recombinant MPP1 (human, UniProt Q00013 1-466); assay: SPR; His-tagged flotillin 1 or 2 captured on a Ni-NTA sensor chip (about 4000 RU), BIAcore T200; untagged MPP1 or its truncated mutants as analytes (at least five concentrations, 50-2000 nM), association 360 s, dissociation 600 s; HBS-T; global fit, 1:1 Langmuir model with mass transport step; conditions: both partners purified
T1 construct: MPP1 (p55), human erythroid, full length; also called p55; MPP1(p55)
T1 sequence (looked up): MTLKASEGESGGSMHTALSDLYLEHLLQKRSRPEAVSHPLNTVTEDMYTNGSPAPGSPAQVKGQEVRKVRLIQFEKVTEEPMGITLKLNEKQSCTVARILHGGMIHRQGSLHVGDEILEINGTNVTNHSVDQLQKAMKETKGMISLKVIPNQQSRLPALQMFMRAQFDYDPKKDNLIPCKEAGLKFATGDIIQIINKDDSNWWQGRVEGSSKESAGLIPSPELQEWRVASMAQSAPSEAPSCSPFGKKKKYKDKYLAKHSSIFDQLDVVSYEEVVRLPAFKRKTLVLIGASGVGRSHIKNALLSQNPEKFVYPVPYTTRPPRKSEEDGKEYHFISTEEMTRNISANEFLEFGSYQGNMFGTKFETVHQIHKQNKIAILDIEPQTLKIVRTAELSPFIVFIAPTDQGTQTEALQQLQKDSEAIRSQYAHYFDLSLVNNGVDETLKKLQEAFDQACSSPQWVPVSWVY

[4] = biological target: B1; assay: as above; conditions: both partners purified
[5] = biological target: B2; assay: as above; conditions: both partners purified
[6] = biological target: B2; assay: as above; conditions: both partners purified; remark: listed apart in the source

Binder | fluorescence lifetime of di-4-ANEPPDHQ (FLIM) in the plasma membrane of HEL cells transfected with MPP1-Mut4-FLAG (~ 3.83 ns) compared to FLAG control (~ 3.98 ns) [1] | reduction of the pERK1/2 level after insulin stimulation in HEL cells transfected with MPP1-Mut4 compared to FLAG control [2] | Kd [3] | koff [3] | kon [3] | Kd [4] | koff [4] | kon [4] | Kd [5] | koff [5] | kon [5] | Kd [6]
endogenous MPP1 (HEL cells) (natural protein) MTLKASEGESGGSMHTALSDLYLEHLLQKRSRPEAVSHPLNTVTEDMYTNGSPAPGSPAQVKGQEVRKVRLIQFEKVTEEPMGITLKLNEKQSCTVARILHGGMIHRQGSLHVGDEILEINGTNVTNHSVDQLQKAMKETKGMISLKVIPNQQSRLPALQMFMRAQFDYDPKKDNLIPCKEAGLKFATGDIIQIINKDDSNWWQGRVEGSSKESAGLIPSPELQEWRVASMAQSAPSEAPSCSPFGKKKKYKDKYLAKHSSIFDQLDVVSYEEVVRLPAFKRKTLVLIGASGVGRSHIKNALLSQNPEKFVYPVPYTTRPPRKSEEDGKEYHFISTEEMTRNISANEFLEFGSYQGNMFGTKFETVHQIHKQNKIAILDIEPQTLKIVRTAELSPFIVFIAPTDQGTQTEALQQLQKDSEAIRSQYAHYFDLSLVNNGVDETLKKLQEAFDQACSSPQWVPVSWVY | 0.15 ns | 46% |  |  |  |  |  |  |  |  |  | 
B1 |  |  | 22.8 nM | 0.00103 s⁻¹ | 45000 M⁻¹ s⁻¹ |  |  |  |  |  |  | 
MPP1-Mut4 (residues 231–466) (domain or fragment, human, UniProt Q00013 231-466, looked up, MPP1 (p55), human, residues 231-466; A FLAG form (p3XFLAG-CMV-10) was expressed in HEL cells for the functional tests only) MAQSAPSEAPSCSPFGKKKKYKDKYLAKHSSIFDQLDVVSYEEVVRLPAFKRKTLVLIGASGVGRSHIKNALLSQNPEKFVYPVPYTTRPPRKSEEDGKEYHFISTEEMTRNISANEFLEFGSYQGNMFGTKFETVHQIHKQNKIAILDIEPQTLKIVRTAELSPFIVFIAPTDQGTQTEALQQLQKDSEAIRSQYAHYFDLSLVNNGVDETLKKLQEAFDQACSSPQWVPVSWVY |  |  |  |  |  | 39.2 nM | 0.000319 s⁻¹ | 8130 M⁻¹ s⁻¹ | 50.2 nM | 0.000281 s⁻¹ | 5600 M⁻¹ s⁻¹ | 
B2 |  |  | 31 nM | 0.00128 s⁻¹ | 41300 M⁻¹ s⁻¹ |  |  |  |  |  |  | 
MPP1-Mut2 (residues 151–237) (domain or fragment, human, UniProt Q00013 151-237, looked up, MPP1 (p55), human, residues 151-237) NQQSRLPALQMFMRAQFDYDPKKDNLIPCKEAGLKFATGDIIQIINKDDSNWWQGRVEGSSKESAGLIPSPELQEWRVASMAQSAPS |  |  |  |  |  | 702 nM | 0.00118 s⁻¹ | 1680 M⁻¹ s⁻¹ | 982 nM | 0.0016 s⁻¹ | 1630 M⁻¹ s⁻¹ | 686 nM
MPP1-Mut3 (residues 211–292) (domain or fragment, human, UniProt Q00013 211-292, looked up, MPP1 (p55), human, residues 211-292) SKESAGLIPSPELQEWRVASMAQSAPSEAPSCSPFGKKKKYKDKYLAKHSSIFDQLDVVSYEEVVRLPAFKRKTLVLIGASG |  |  |  |  |  | 137 nM | 0.000515 s⁻¹ | 3750 M⁻¹ s⁻¹ | 199 nM | 0.000828 s⁻¹ | 4170 M⁻¹ s⁻¹ | 
